{
  "source": "patent US20170283834A1",
  "about": "“Processes for Producing A Fermentation Product Using A Fermenting Organism” (Novozymes A/S, priority 2014, published 2017)",
  "molecules": {"B1": {"name": "JTP059: protease variant of SEQ ID NO: 3: C6R/D79L/S87P (protein, listed as Thermoascus aurantiacus)", "chain": "MRLVASLTALVALSVPVFPAAVNVKRASSYLEITLSQVSNTLIKAVVQNTGSDELSFVHLNFFKDPAPVKKVSVYRDGSEVQFEGILSRYKSTGLSRDAFTYLAPGESVEDVFDIASTYDLTSGGPVTIRTEGVVPYATANSTDIAGYISYSSNVLTIDVDGAAAATVSKAITPLDRRTRISSRSGSRQSALTTALRNAASLANAAADAAQSGSASKFSEYFKTTSSSTRQTVAARLRAVAREASSSSSGATTYYCLDPYGYCSPNVLAYTLPSYNIIANCDIFYTYLPALTSTCHAQDQATTALHEFTHAPGVYSPGTDDLAYGYQAAMGLSSSQAVMNADTYALYANAIYLGC"}, "B2": {"name": "JTP063: protease variant of SEQ ID NO: 3: S49R/D79L/S87P (protein, listed as Thermoascus aurantiacus)", "chain": "B1 chain with R184C, S227R"}, "B3": {"name": "JTP071: protease variant of SEQ ID NO: 3: D79L/S87P/T116V (protein, listed as Thermoascus aurantiacus)", "chain": "B1 chain with R184C, T294V"}, "B4": {"name": "JTP072: protease variant of SEQ ID NO: 3: N26R/D79L/S87P (protein, listed as Thermoascus aurantiacus)", "chain": "B1 chain with R184C, N204R"}, "B5": {"name": "JTP069: protease variant of SEQ ID NO: 3: D79L/S87P/S115R (protein, listed as Thermoascus aurantiacus)", "chain": "B1 chain with R184C, S293R"}, "B6": {"name": "JTP078: protease variant of SEQ ID NO: 3: A27V/D79L/S87P/A112P/D142L (protein, listed as Thermoascus aurantiacus)", "chain": "B1 chain with R184C, A205V, A290P, D320L"}, "B7": {"name": "JTP079: protease variant of SEQ ID NO: 3: A27G/D79L/S87P/A112P/D142L (protein, listed as Thermoascus aurantiacus)", "chain": "B1 chain with R184C, A205G, A290P, D320L"}, "B8": {"name": "JTP061: protease variant of SEQ ID NO: 3: T46R/D79L/S87P (protein, listed as Thermoascus aurantiacus)", "chain": "B1 chain with R184C, T224R"}, "B9": {"name": "JTP068: protease variant of SEQ ID NO: 3: D79L/S87P/T114P (protein, listed as Thermoascus aurantiacus)", "chain": "B1 chain with R184C, T292P"}, "B10": {"name": "JTP064: protease variant of SEQ ID NO: 3: D79L/S87P/N88R (protein, listed as Thermoascus aurantiacus)", "chain": "B1 chain with R184C, N266R"}, "B11": {"name": "JTP088: protease variant of SEQ ID NO: 3: Y43F/D79L/S87P/A112P/D142L (protein, listed as Thermoascus aurantiacus)", "chain": "B1 chain with R184C, Y221F, A290P, D320L"}, "B12": {"name": "JTP083: protease variant of SEQ ID NO: 3: T46R/D79L/S87P/A112P/D142L (protein, listed as Thermoascus aurantiacus)", "chain": "B1 chain with R184C, T224R, A290P, D320L"}, "B13": {"name": "JTP090: protease variant of SEQ ID NO: 3: D79L/S87P/A112P/T124L/D142L (protein, listed as Thermoascus aurantiacus)", "chain": "B1 chain with R184C, A290P, T302L, D320L"}},
  "note": "Residue numbers refer to the chain shown, from its start. Numbers in names are those of the source.",
  "data": [
    {"test_system": "zein", "experiment": "Relative activity assay of protease variants (zein micro titer plate)", "type": "biochemical", "details": "Table 3", "procedure": "(§1) Each well contains 200 microL of 0.05-0.1% of zein (Sigma), 0.25 mM ZnSO4 and 1% of agar in 20 mM sodium acetate buffer, pH 4.5.\n(§2) Yeast clones on SC-glucose were inoculated to a well of a 96-well micro titre plate containing YPD+Zn medium and cultivated at 28° C. for 3 days. The culture supernatants were applied to a 96-well zein micro titer plate and incubated at at least 2 temperatures (ex. 60° C. and 65° C., 70° C. and 75° C., 70° C. and 80° C.) for more than 4 hours or overnight. The turbidity of zein in the plate was measured as A630 and the relative activity (higher/lower temperatures) was determined as an indicator of thermoactivity improvement. The clones with higher relative activity than the parental variant were selected and the sequence was determined.", "units": {"Relative activity 75° C./70° C.": "%", "Relative activity 75° C./65° C.": "%"}, "values": [
      {"molecule": "B1", "Relative activity 75° C./70° C.": 92},
      {"molecule": "B2", "Relative activity 75° C./70° C.": 94},
      {"molecule": "B3", "Relative activity 75° C./70° C.": 105},
      {"molecule": "B4", "Relative activity 75° C./65° C.": 92},
      {"molecule": "B5", "Relative activity 75° C./70° C.": 103},
      {"molecule": "B6", "Relative activity 75° C./65° C.": 100},
      {"molecule": "B7", "Relative activity 75° C./65° C.": 104},
      {"molecule": "B8", "Relative activity 75° C./70° C.": 111},
      {"molecule": "B9", "Relative activity 75° C./70° C.": 99},
      {"molecule": "B10", "Relative activity 75° C./70° C.": 92}
    ]},
    {"test_system": "zein", "experiment": "Relative activity assay of protease variants (zein micro titer plate)", "type": "biochemical", "details": "Table 4", "procedure": "as §1, §2", "units": {"Relative activity 75° C./65° C.": "%"}, "values": [
      {"molecule": "B11", "Relative activity 75° C./65° C.": 119},
      {"molecule": "B12", "Relative activity 75° C./65° C.": 126},
      {"molecule": "B13", "Relative activity 75° C./65° C.": 141}
    ]}
  ]
}
